Among the data in US20140046032A1 (Sanofi, published 2014) are EC50 (read off the curve), binding result and Kd values, retold here.

Assay [1] deals with lectin Maackia amurensis (MAA) (Maackia amurensis). The assay is described as follows: enzyme-linked lectin assay (ELLA) with Maackia amurensis lectin (MAA, α-2,3 sialic acid); signal against µg of mAb, linear axis.
In assay [2] the target is T1, recombinant murine FcγRIV (murine, UniProt A0A0B4J1G0 21-203).
T1 construct: Bought
T1 sequence: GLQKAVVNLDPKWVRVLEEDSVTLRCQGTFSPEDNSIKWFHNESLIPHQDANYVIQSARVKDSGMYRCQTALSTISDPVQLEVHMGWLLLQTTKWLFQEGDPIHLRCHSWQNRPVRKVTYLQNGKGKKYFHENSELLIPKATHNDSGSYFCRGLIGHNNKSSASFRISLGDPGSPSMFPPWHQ
The assay is described as follows: SPR, Biacore 3000. Background: Surface plasmon resonance follows binding to a sensor surface in real time, without labels.

The next assay addresses T2, recombinant murine FcγRI (murine, UniProt P26151 25-297).
T2 construct: Bought
T2 sequence (looked up): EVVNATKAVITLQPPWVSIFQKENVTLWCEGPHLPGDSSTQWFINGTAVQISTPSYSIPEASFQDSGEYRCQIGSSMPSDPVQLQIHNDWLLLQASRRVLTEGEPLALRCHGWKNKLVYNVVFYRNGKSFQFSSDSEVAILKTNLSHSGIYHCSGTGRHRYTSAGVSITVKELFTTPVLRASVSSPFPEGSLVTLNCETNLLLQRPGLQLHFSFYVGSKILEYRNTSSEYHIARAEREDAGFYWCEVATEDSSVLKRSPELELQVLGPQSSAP
The assay can be described thus: SPR, Biacore 3000.

In assay [3] the target is T3, recombinant murine FcγRIIb (murine, UniProt P08101 30-207, limits assumed).
T3 construct: Bought
T3 sequence (looked up): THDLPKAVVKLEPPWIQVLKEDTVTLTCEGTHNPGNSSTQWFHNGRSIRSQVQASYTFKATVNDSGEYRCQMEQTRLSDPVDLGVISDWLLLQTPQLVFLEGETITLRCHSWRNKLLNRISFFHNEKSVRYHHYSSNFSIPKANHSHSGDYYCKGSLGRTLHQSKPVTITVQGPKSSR
The assay can be described thus: SPR, Biacore 3000.

Assay [4] concerns the target T4, recombinant murine FcγRIII (murine, UniProt P08508 31-215).
T4 construct: Bought
T4 sequence (looked up): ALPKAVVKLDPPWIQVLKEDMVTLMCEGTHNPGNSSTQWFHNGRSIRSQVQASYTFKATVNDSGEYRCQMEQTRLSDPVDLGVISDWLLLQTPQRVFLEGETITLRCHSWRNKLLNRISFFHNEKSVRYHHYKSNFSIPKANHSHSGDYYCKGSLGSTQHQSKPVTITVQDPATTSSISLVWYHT
The assay is described as follows: SPR, Biacore 3000.

As a reminder, the Kd is the concentration at which binding is half-saturated.

lectin Maackia amurensis (MAA) (Maackia amurensis), sequence (P0DKL3 30-278): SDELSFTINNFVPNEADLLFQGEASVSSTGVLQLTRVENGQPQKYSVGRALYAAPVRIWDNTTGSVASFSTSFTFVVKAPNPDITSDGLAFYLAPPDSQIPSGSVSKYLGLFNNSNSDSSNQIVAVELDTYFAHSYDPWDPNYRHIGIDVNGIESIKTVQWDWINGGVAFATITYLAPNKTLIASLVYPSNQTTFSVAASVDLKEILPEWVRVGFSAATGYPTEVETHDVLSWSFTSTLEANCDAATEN

As to fetuin, the EC50 (read off the curve) in assay [1] worked out at 0.2 µg.

B1: α-2,6 sialylated antiAbeta-13C3_D257A mAb (co-expressed with SIAT1 and B4GT1) (antibody, mouse IgG1, kappa)
heavy: QVQLQQSGPELVRPGVSVKISCKGSGYTFTDYAMHWVKQSHAKSLEWIGVISTKYGKTNYNQKFKGKATMTVDKSSSTAYMELARLTSEDSAIYYCARGDDGYSWGQGTSVTVSSAKTTPPSVYPLAPGSAAQTNSMVTLGCLVKGYFPEPVTVTWNSGSLSSGVHTFPAVLQSDLYTLSSSVTVPSSTWPSETVTCNVAHPASSTKVDKKIVPRDCGCKPCICTVPEVSSVFIFPPKPKDVLTITLTPKVTCVVVAISKDDPEVQFSWFVDDVEVHTAQTQPREEQFNSTFRSVSELPIMHQDWLNGKEFKCRVNSAAFPAPIEKTISKTKGRPKAPQVYTIPPPKEQMAKDKVSLTCMITDFFPEDITVEWQWNGQPAENYKNTQPIMDTDGSYFVYSKLNVQKSNWEAGNTFTCSVLHEGLHNHHTEKSLSHSPG
light: DVVMTQTPLSLPVSLGDQASISCRSGQSLVHSNGNTYLHWYLQKPGQSPKLLIYTVSNRFSGVPDRFSGSGSGSDFTLKISRVEAEDLGVYFCSQNTFVPWTFGGGTKLEIKRADAAPTVSIFPPSSEQLTSGGASVVCFLNNFYPKDINVKWKIDGSERQNGVLNSWTDQDSKDSTYSMSSTLTLTKDEYERHNSYTCEATHKTSTSPIVKSFNRNEC
modifications: Fc N-glycan essentially α-2,6-sialylated, G2F/G2F + 4 NeuNAc per mAb (very high sialic acid content)
notes: Small-scale batch LP10094, large-scale batch LP10104 and a CHO-produced batch are treated as this one molecule; also called antiAbeta_13C3_D257A batch LP10104; batch LP10094
B1: the binding result (in assay [2]; with recombinant murine FcγRI) was “no binding” each time.

B2: antiAbeta_13C3 mAb (murine, batch LP09009, low sialic acid content) (antibody, mouse IgG1, kappa)
heavy: QVQLQQSGPELVRPGVSVKISCKGSGYTFTDYAMHWVKQSHAKSLEWIGVISTKYGKTNYNQKFKGKATMTVDKSSSTAYMELARLTSEDSAIYYCARGDDGYSWGQGTSVTVSSAKTTPPSVYPLAPGSAAQTNSMVTLGCLVKGYFPEPVTVTWNSGSLSSGVHTFPAVLQSDLYTLSSSVTVPSSTWPSETVTCNVAHPASSTKVDKKIVPRDCGCKPCICTVPEVSSVFIFPPKPKDVLTITLTPKVTCVVVDISKDDPEVQFSWFVDDVEVHTAQTQPREEQFNSTFRSVSELPIMHQDWLNGKEFKCRVNSAAFPAPIEKTISKTKGRPKAPQVYTIPPPKEQMAKDKVSLTCMITDFFPEDITVEWQWNGQPAENYKNTQPIMDTDGSYFVYSKLNVQKSNWEAGNTFTCSVLHEGLHNHHTEKSLSHSPG
light: DVVMTQTPLSLPVSLGDQASISCRSGQSLVHSNGNTYLHWYLQKPGQSPKLLIYTVSNRFSGVPDRFSGSGSGSDFTLKISRVEAEDLGVYFCSQNTFVPWTFGGGTKLEIKRADAAPTVSIFPPSSEQLTSGGASVVCFLNNFYPKDINVKWKIDGSERQNGVLNSWTDQDSKDSTYSMSSTLTLTKDEYERHNSYTCEATHKTSTSPIVKSFNRNEC
modifications: Fc N-glycan with low sialic acid content
notes: Murine IgG1 heavy chain, murine Ckappa light chain; also called antiAbeta-13C13 mAb; original antiAbeta-13C3
Take B2: the binding result (in assay [2]; in the assay with recombinant murine FcγRI) was “no binding” each time. Besides, the Kd in assay [3] amounted to 354 nM; in assay [4], 471 nM.

B3: antiAbeta_13C3_D257A mAb produced without co-expression of SIAT1 and B4GT1 (batch LP10116, low sialic acid content) (antibody, mouse IgG1, kappa)
heavy: QVQLQQSGPELVRPGVSVKISCKGSGYTFTDYAMHWVKQSHAKSLEWIGVISTKYGKTNYNQKFKGKATMTVDKSSSTAYMELARLTSEDSAIYYCARGDDGYSWGQGTSVTVSSAKTTPPSVYPLAPGSAAQTNSMVTLGCLVKGYFPEPVTVTWNSGSLSSGVHTFPAVLQSDLYTLSSSVTVPSSTWPSETVTCNVAHPASSTKVDKKIVPRDCGCKPCICTVPEVSSVFIFPPKPKDVLTITLTPKVTCVVVAISKDDPEVQFSWFVDDVEVHTAQTQPREEQFNSTFRSVSELPIMHQDWLNGKEFKCRVNSAAFPAPIEKTISKTKGRPKAPQVYTIPPPKEQMAKDKVSLTCMITDFFPEDITVEWQWNGQPAENYKNTQPIMDTDGSYFVYSKLNVQKSNWEAGNTFTCSVLHEGLHNHHTEKSLSHSPG
light: DVVMTQTPLSLPVSLGDQASISCRSGQSLVHSNGNTYLHWYLQKPGQSPKLLIYTVSNRFSGVPDRFSGSGSGSDFTLKISRVEAEDLGVYFCSQNTFVPWTFGGGTKLEIKRADAAPTVSIFPPSSEQLTSGGASVVCFLNNFYPKDINVKWKIDGSERQNGVLNSWTDQDSKDSTYSMSSTLTLTKDEYERHNSYTCEATHKTSTSPIVKSFNRNEC
modifications: Fc N-glycan G0F/G0F, low sialic acid content
notes: also called low sialylated antiAbeta-13C3_D257A
As for B3, the binding result (in assay [2]; with recombinant murine FcγRI) was “no binding” each time.
